# Measured values from patent US11529424B2, “Synthetic bioconjugates” (Symic Holdings, Inc., priority 2017, dated 2022).
# “And” between values parts separate entries of the source, which are not always exact repeats. Identical values can stand only once. “Also recorded” adds a separate entry of the source. Like-named read-outs stand apart in the source and are kept apart here. Ends that are not written are not given here. * marks the point of attachment. NHNH2 = NN*
# B1: Compound 10 (heparin bioconjugate of …-NHNH2) (peptide)
# peptide: GQLYKSILYGSGSGSRR
# modifications: not fully specified; C-terminal hydrazide (-NHNH-) bonded to a carboxyl of heparin; part of the peptides biotin-labelled
# B2: Compound 7 (peptide)
# peptide conjugated to heparin: GQLYKSILYGRSGRGSG
# modifications: not fully specified; C-terminal hydrazide (-NHNH2) coupled to heparin; part of the peptides biotin-labelled
# B3: Compound 9 (heparin bioconjugate of …-NHNH2) (peptide)
# peptide: GQLYKSILYRRGSGSGS
# modifications: not fully specified; C-terminal hydrazide (-NHNH-) bonded to a carboxyl of heparin; part of the peptides biotin-labelled
# B4: Compound 13 (heparin bioconjugate of …-NHNH2) (peptide)
# peptide: GQLYKSILYGSGRGSGSGSG
# modifications: not fully specified (C-terminus); printed as GQLYKSILYGSGRGSGSGSG-; also: about 5 peptides per heparin (16 kDa), part of the peptides biotin-labelled
# B5: Compound 11 (heparin bioconjugate of …-NHNH2) (peptide)
# peptide: GQLYKSILYGSRRGS
# modifications: not fully specified; C-terminal hydrazide (-NHNH-) bonded to a carboxyl of heparin; part of the peptides biotin-labelled
# B6: Compound 19 (heparin bioconjugate of (…)2-KRRGSG-NHNH2) (peptide)
# peptide 1: RVMHGLHLGDDEGSG
# peptide 2: KRRGSG
# modifications: not fully specified (C-terminus); printed as (RVMHGLHLGDDEGSG)2-KRRGS; also: two copies of chain 1 bonded to the N-terminal branching lysine of chain 2, about 3 branched peptides per heparin (16 kDa)
# B7: Compound 5 (heparin bioconjugate of …-NHNH2) (peptide)
# peptide: GQLYKSILYGSGSGSGS
# modifications: not fully specified; C-terminal hydrazide (-NHNH-) bonded to a carboxyl of heparin; part of the peptides biotin-labelled
# B8: Compound 6 (peptide)
# peptide conjugated to heparin: GQLYKSILYGSRGRGSG
# modifications: not fully specified; C-terminal hydrazide (-NHNH2) coupled to heparin; part of the peptides biotin-labelled
# B9: Compound 20 (peptide)
# peptide conjugated to heparin: GSGGQLYKSILY
# modifications: not fully specified (N-terminus); also: part of the peptides biotin-labelled, heparin backbone average 16 kDa
# B10: Compound 3 (heparin bioconjugate of …-NHNH2) (peptide)
# peptide: GQLYKSILYGSG
# modifications: not fully specified; C-terminal hydrazide (-NHNH-) bonded to a carboxyl of heparin; part of the peptides biotin-labelled
# B11: Compound 12 (heparin bioconjugate of …-NHNH2) (peptide)
# peptide: GQLYKSILYGSGRRRGSG
# modifications: not fully specified; C-terminal hydrazide (-NHNH-) bonded to a carboxyl of heparin; part of the peptides biotin-labelled
# B12: Compound 8 (heparin bioconjugate of …-NHNH2) (peptide)
# peptide: GQLYKSILYGSRGSG
# modifications: not fully specified; C-terminal hydrazide (-NHNH-) bonded to a carboxyl of heparin; part of the peptides biotin-labelled
# B13: Compound 4 (heparin bioconjugate of …-NHNH2) (peptide)
# peptide: GQLYKSILYGSGRRGSG
# modifications: not fully specified; C-terminal hydrazide (-NHNH-) bonded to a carboxyl of heparin; part of the peptides biotin-labelled
# B14: Compound 14 (heparin bioconjugate of …) (peptide)
# peptide: GQLYKSILYGSGKKGSG
# modifications: also: conjugated to heparin
# Key:
# collagen = assay: Collagen-binding plate assay; conditions: for collagen binding EC50: compared to the EC50 for Compound 4
# Procedure: The following method is used to assess the binding affinity of bioconjugates disclosed herein for collagen.
# Collagen-binding of bioconjugate variants is compared by a plate-assay, in which collagen is coated on 96-well plates. Collagen is coated on high-bind plates at 50 μg/mL in 0.02 N acetic acid for 1 hour at room temperature. Unbound collagen is rinsed with 1×PBS pH 7.4. Plates are then blocked in 1% milk in 1×PBS solution for 1 hour at room temperature.
# Bioconjugate variants containing biotinlyated peptides are dissolved to a final concentration of 1 mg/mL in 1% milk in 1×PBS pH 7.4. From this solution, a 10× serial dilution is performed. Molecules are then incubated on the blocked collagen-coated plates and incubated for 15 minutes at room temperature. Plates are then rinsed 3 times with 1×PBS in 1% BSA and 0.2% Tween20.
# Bound molecules are detected by streptavidin-HRP, which was diluted 1:500 in 1× PBS with 1% BSA and 0.2% Tween20 and incubated 200 μL/well for 20 minutes at room temperature. Streptavidin solution is rinsed from the plates 3 times with 1×PBS with 0.2% Tween20. TMB Substrate solution is then added to each well 100 μL/well for 15 minutes at room temperature, and the color evolution was stopped with 100 μL sulfuric acid solution (0.16 M). Absorbance in the well is then measured at 450 nm and binding affinity plotted in a dose-response by absorbance vs. concentration.
# This method was used to compare collagen binding affinity of various collagen-binding bioconjugates by comparing EC50 values. More specifically, the EC50 values for each bioconjugate was compared to the EC50 for Compound 4.
# [1] = test system: platelet binding to Type I fibrillar collagen; assay: Platelet aggregation: platelet binding to collagen under flow; assay type: cell-based; conditions: 2 mg/mL on collagen-coated slides, human whole blood, sheer rate 1000 s−1, 10 minutes; compared to Compound 1
# Procedure: Type I fibrillar collagen was adsorbed to Ibidi μ-slides by overnight incubation at 2-8° C. The Ibidi μ-slides were rinsed with Phosphate Buffer Saline (PBS), and then blocked with 1% BSA in 1×PBS. Compound 10 (shown in FIG. 12B) and Compound 1 at 2 mg/mL (shown in 12A) were applied to Ibidi μ-slides and left to incubate. After 1 hour excess conjugates were rinsed away with 1×PBS. Freshly drawn human whole blood was prestained with Calcein AM (Live Fluorescent cell marker). Blood was pumped across the channels at a sheer rate of 1000 s−1 using a syringe pump for 10 minutes. As blood flows across the Ibidi μ-Slides, Fluorescent microscope was used to take images of aggregated fluorescently labeled platelets.
# [2] = test system: mouse model of Non-Alcoholic Steatohepatitis (NASH); assay: Non-Alcoholic Steatohepatitis (NASH) mouse model, liver collagen by Sirius Red; assay type: in vivo, C57BL/6 mice; conditions: week 5 to week 9; Compound 10 3×/week intravenous, Telmisartan daily oral; compared to the vehicle treated group
# Procedure: The ability of the compounds to affect liver fibrosis was tested in a mouse model of Non-Alcoholic Steatohepatitis (NASH). C57BL/6 mice received a single subcutaneous injection of 200 μg streptozotocin after birth. Beginning at 4 weeks of age, animals were fed a high fat diet. […] A separate group of animals received daily oral administration of Telmisartan during the same period Animals were sacrificed at 9 weeks of age and the livers were collected for histological and biochemical analysis. Histological analysis of the livers for collagen content was performed using Sirius Red staining.
# Collagen Type I = Collagen Type I (Homo sapiens, UniProt P02452+P08123); assay: Collagen Binding Assay 2; conditions: with GSGSGSRR spacer versus binding domain without spacer and spacer alone, FIG. 18 and 19
# Procedure: GQLYKSILYGSGSGSRR (SEQ ID NO: 6) (Compound 10) was evaluated for binding affinity against the GQLYKSILYGSG (SEQ ID NO: 59) (Peptide X) binding domain without spacer and against the spacer sequence alone, GSGSGSRR (SEQ ID NO: 4) (Spacer A), results shown in FIG. 18. […] WREPSFSALS (SEQ ID NO: 8), also known as vWF-2× due to its binding to the von Willebran binding site on collagen, was evaluated for binding affinity with and without the GSGSGSRR (SEQ ID NO: 4) spacer.
# 50 μg/ml of Collagen Type I was adsorbed onto high bind plates by incubating overnight. Plates were then washed with PBS and blocked using 1% Non-fat milk in PBS for 1 hour. Molecule dilutions were prepared in 1% BSA in PBS and then incubated for 1 hour at 25° C. Plates were then washed with PBS containing 0.05% Tween 20. A 1:500 dilution of Streptavidin-HRP in 1% BSA PBS was prepared and added to the plates for 20 minutes. Plates were then washed with PBS and TMB solution was added for 10 minutes for color development. The color development was stopped using 0.16 M sulfuric acid and absorbance at […] was measured using a plate reader. Compound 10 was used as a reference standard for all EC50 results.
# [3] = target: collagen (coated on 96-well plates, Example 2); assay: collagen-coated 96-well plate, biotin-labelled bioconjugate, streptavidin-HRP/TMB, absorbance at 450 nm (Example 2), the concentration axis is in ug/ml
# [4] = target: collagen (coated on 96-well plates, Example 2); assay: collagen-coated 96-well plate, biotin-labelled bioconjugate, streptavidin-HRP/TMB, absorbance at 450 nm (Example 2)
# [5] = target: collagen (coated on 96-well plates, Example 2); assay: as above; remark: listed apart in the source
# [6] = target: collagen (coated on 96-well plates, Example 2); assay: collagen-coated 96-well plate, biotin-labelled bioconjugate, streptavidin-HRP/TMB, absorbance at 450 nm (Example 2); Kd unit inferred, the concentration axis is in ug/ml
# Chain of Collagen Type I (P02452 162-1218 limits assumed): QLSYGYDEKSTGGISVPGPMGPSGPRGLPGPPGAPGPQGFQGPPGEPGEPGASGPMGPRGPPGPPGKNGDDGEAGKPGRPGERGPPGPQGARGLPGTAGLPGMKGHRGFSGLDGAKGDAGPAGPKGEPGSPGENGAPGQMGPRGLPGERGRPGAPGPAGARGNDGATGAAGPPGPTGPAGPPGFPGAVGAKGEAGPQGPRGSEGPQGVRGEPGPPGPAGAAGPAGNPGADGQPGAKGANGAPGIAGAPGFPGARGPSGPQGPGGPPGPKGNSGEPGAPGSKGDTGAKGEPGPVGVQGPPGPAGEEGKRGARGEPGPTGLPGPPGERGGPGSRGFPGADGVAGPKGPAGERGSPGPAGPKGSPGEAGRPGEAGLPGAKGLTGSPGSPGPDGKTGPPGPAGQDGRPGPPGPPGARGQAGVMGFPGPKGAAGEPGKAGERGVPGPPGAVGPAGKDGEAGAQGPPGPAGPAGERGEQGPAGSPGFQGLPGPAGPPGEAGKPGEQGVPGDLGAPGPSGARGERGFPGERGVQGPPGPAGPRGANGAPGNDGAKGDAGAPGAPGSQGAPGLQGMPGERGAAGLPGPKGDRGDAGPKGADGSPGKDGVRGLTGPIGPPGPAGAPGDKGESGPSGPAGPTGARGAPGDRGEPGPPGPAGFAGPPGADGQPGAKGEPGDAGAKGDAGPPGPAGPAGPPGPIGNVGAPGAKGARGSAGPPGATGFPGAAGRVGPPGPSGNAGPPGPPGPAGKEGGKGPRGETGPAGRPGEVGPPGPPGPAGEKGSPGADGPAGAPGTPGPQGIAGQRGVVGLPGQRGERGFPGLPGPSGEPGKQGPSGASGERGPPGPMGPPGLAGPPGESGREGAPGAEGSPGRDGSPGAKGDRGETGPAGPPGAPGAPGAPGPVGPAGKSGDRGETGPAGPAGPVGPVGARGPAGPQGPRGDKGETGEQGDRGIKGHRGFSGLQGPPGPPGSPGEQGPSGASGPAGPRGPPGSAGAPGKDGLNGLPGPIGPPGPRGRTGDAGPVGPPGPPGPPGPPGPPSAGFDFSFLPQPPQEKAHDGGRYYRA
# Chain of Collagen Type I (P08123 80-1119 limits assumed): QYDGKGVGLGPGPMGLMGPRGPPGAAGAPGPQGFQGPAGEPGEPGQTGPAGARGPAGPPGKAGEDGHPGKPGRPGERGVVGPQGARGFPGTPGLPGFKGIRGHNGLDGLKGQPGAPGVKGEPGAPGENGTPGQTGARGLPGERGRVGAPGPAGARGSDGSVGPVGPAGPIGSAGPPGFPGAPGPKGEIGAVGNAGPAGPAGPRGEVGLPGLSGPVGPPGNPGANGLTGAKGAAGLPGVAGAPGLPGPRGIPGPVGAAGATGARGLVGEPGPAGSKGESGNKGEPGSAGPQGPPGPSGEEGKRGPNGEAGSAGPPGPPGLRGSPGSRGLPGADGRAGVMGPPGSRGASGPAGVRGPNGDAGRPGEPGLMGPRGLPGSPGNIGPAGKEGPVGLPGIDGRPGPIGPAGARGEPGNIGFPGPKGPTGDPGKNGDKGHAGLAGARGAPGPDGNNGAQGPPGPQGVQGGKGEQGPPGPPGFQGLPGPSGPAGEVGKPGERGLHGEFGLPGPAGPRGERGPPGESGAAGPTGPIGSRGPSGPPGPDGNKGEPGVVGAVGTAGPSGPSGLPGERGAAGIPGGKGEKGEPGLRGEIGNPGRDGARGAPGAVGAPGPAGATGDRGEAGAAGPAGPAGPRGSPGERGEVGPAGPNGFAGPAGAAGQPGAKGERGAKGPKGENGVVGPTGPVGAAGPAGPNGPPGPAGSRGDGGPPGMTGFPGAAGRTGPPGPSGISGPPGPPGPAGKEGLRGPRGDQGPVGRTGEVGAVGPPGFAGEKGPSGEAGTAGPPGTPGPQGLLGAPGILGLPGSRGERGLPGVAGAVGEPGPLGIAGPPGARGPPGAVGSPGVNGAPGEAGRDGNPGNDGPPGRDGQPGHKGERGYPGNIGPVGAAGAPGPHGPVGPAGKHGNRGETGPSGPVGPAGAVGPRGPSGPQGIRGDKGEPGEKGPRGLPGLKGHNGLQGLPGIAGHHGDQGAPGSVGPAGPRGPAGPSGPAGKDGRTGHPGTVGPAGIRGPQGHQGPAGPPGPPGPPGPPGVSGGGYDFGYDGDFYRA
molecule,measurement,setting,value
"Compound 8: heparin bioconjugate with peptide GQLYKSILYGSRGSG-NHNH2 (Peptide 8), 1:8 glycan to peptide (also: heparin bioconjugate, 1:8 glycan to peptide, attachment site not given here)",collagen binding EC50,collagen,increases EC50; also recorded: slightly increases EC50
"Compound 4: heparin bioconjugate with peptide GQLYKSILYGSGRRGSG-NHNH2 (Peptide 4), 1:8 glycan to peptide (also: heparin bioconjugate, 1:8 glycan to peptide, attachment site not given here)",collagen binding affinity (Kd),"collagen; compared to Compound 5 and Compound 3, FIG. 11",significant increase in collagen binding affinity (lower Kd)
"Compound 10: heparin bioconjugate with peptide GQLYKSILYGSGSGSRR-NHNH2 (Peptide 10), 1:8 glycan to peptide (also: heparin bioconjugate, 1:8 glycan to peptide, attachment site not given here)",platelet binding to Type I fibrillar collagen,[1],inhibits platelet binding to Type I fibrillar collagen
same,collagen binding EC50,collagen,decreases the EC50
same,levels of collagen in the liver (Sirius Red staining),[2],decreased levels of collagen in the liver
same,collagen binding affinity,Collagen Type I,greater binding affinity than the binding domain or the spacer in isolation
WREPSFSALSGSGSGSRR [WREPSFSALSGSGSGSRR (SEQ ID NO: 110)],collagen binding affinity,Collagen Type I,increase in binding affinity
"CCCc1nc2c(C)cc(-c3nc4ccccc4n3C)cc2n1Cc1ccc(-c2ccccc2C(=O)O)cc1 [Telmisartan, reference compound]",levels of collagen in the liver (Sirius Red staining),[2],decreased levels of collagen in the liver
B1,EC50,[3],15 µg/mL
same,EC50 (read off the curve),[4],20 µg/mL
B2,EC50,[3],44.2 µg/mL
B3,EC50 (read off the curve),[4],50 µg/mL
B4,EC50 (read off the curve),[4],60 µg/mL
B5,EC50 (read off the curve),[5],50 µg/mL
B6,EC50 (read off the curve),[4],100 µg/mL
B7,Kd,[6],103 µg/mL and 113 µg/mL
B8,EC50,[3],63.3 µg/mL
B9,Kd,[6],35.1 µg/mL
B10,Kd,[6],112 µg/mL
B11,EC50 (read off the curve),[4],30 µg/mL
B12,EC50,[3],47.1 µg/mL
same,EC50 (read off the curve),[5],60 µg/mL
B13,EC50,[3],40.4 µg/mL and 32.1 µg/mL
same,EC50 (read off the curve),[5],40 µg/mL
same,EC50 (read off the curve),[4],50 µg/mL
same,Kd,[6],42.5 µg/mL
B14,EC50 (read off the curve),[4],60 µg/mL
